Tested on: A549 human non-small cell lung cancer line
Test: Growth in soft agar
Type: cell-based
Settings: transfected A549, 3 weeks; mean over three experiments
Text: Figure 6 Talin R8 Mutations Disrupt the Interaction with DLC1 and Affect Its Biological Activity (A) Wild-type GST-talin fragments pull down more DLC1 than the 2E mutants. Extracts of HEK293T cells transfected with GFP-DLC1 and GST-talin constructs were subjected to pull-down assays with glutathione beads followed by immunoblotting with anti-GST and anti-DLC1 on the same membrane (top). The transfected GFP-DLC1 in each sample is shown by the anti-DLC1 blot (bottom) as a loading control. (B) Wild-type GST-talin fragments compete efficiently with endogenous talin to form a complex with DLC1. The supernatants collected after pull-down assay from (A) were reused for co-immunoprecipitation with an anti-talin antibody and blotted with anti-DLC1 (top). A small aliquot from each lane was blotted for endogenous talin as a loading control (bottom). (C) Co-expression of GST or GST-talin fragments (wild-type or 2E mutant) with GFP DLC1 in A549 cells. […] Transfected A549 cells were cultured in G418 for 3 weeks, and colonies counted and quantitated (top). […] Transfected A549 cells were grown for 3 weeks in soft agar, and colonies counted and quantitated (top). […] Lysates from migrated cells were quantitated (top), and representative microscopic images of the migrated cells are shown (bottom). […]

B1: GST-R8: GST-tagged talin R8, amino acids 1,453–1,580 (protein)
chain: NSQAGQQGLVEPTQFARANQAIQMACQSLGEPGCTQAQVLSAATIVAKHTSALCNSCRLASARTANPTAKRQFVQSAKEVANSTANLVKTIKALDGDFTEENRAQCRAATAPLLEAVDNLSAFASNPE
modifications: left off: GST, end not stated, kept
  growth in soft agar: no detectable biological activity

Reference: PMC4938799, “LD Motif Recognition by Talin: Structure of the Talin-DLC1 Complex” (Structure(London, England:1993), 2016)
